{"source": "patent US20110319337A1", "about": "(published 2011)", "binders": {"B1": {"name": "wild type Wnt2 (expressed from transfected Wnt2 cDNA) (ligand)", "chain": "SWWYMRATGGSSRVMCDNVPGLVSSQRQLCHRHPDVMRAISQGVAEWTAECQHQFRQHRWNCNTLDRDHSLFGRVLLRSSRESAFVYAISSAGVVFAITRACSQGEVKSCSCDPKKMGSAKDSKGIFDWGGCSDNIDYGIKFARAFVDAKERKGKDARALMNLHNNRAGRKAVKRFLKQECKCHGVSGSCTLRTCWLAMADFRKTGDYLWRKYNGAIQVVMNQDGTGFTVANERFKKPTKNDLVYFENSPDYCIRDREAGSLGTAGRVCNLTSRGMDSCEVMCCGRGYDTSHVTRMTKCGCKFHWCCAVRCQDCLEALDVHTCKAPKNADWTTAT"}}, "test_in_all_cases": "cell-based or functional assay", "key": {"[1]": {"molecular_target": "Frizzled 9 (expressed in transfected 293T cells)"}, "[2]": {"molecular_target": "Frizzled 7 (expressed in transfected 293T cells)"}, "[3]": {"molecular_target": "Frizzled 8 receptor (expressed in transfected cells) (human, UniProt Q9H461 28-694)", "sequence (Q9H461 28-694 limits assumed)": "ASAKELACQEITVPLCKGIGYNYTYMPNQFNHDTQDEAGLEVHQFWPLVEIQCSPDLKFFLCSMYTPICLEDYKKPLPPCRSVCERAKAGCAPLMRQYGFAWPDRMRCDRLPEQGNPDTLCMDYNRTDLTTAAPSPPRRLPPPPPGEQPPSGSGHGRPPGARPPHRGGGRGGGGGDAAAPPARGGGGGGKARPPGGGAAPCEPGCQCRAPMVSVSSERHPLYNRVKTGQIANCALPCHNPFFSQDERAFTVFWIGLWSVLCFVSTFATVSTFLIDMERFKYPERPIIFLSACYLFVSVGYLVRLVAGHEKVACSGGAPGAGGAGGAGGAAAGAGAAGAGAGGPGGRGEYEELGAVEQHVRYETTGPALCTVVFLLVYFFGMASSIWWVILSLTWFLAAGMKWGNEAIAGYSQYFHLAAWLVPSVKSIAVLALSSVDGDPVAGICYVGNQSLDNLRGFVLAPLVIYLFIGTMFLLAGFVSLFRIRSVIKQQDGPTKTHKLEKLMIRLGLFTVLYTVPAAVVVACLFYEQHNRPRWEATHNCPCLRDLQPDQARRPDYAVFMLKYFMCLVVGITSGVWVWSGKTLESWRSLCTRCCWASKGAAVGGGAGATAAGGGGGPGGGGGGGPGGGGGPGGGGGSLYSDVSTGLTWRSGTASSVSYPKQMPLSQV"}, "[4]": {"molecular_target": "T1, Frizzled 6 (expressed in transfected 293T cells)", "T1 sequence (O60353 whole entry, species assumed, looked up)": "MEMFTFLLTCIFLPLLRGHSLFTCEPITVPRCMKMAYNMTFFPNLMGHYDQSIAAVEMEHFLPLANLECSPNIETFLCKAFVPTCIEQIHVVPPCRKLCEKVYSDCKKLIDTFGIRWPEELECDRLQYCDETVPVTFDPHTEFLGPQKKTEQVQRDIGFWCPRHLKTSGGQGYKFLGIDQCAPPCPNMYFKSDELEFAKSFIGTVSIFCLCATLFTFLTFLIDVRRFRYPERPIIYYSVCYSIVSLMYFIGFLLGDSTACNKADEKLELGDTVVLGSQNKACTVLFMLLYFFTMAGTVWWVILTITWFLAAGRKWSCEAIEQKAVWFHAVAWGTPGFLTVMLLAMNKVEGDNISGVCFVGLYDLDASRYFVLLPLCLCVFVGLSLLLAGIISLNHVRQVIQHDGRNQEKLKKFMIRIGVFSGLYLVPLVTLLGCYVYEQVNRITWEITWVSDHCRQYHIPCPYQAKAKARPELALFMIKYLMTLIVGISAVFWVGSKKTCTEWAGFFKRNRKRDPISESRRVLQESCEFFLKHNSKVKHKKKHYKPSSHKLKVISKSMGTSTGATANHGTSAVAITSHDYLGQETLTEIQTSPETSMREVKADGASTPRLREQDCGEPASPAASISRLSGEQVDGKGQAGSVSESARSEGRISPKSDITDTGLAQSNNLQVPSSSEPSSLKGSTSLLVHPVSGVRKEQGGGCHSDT"}}}
{"binder": "B1", "values": [{"measurement": "luciferase activity (TOPflash TCF reporter, 293T cells co-expressing Wnt2 and the Fzd receptor) over vector control alone", "setting": "[1]", "result": 16, "unit": "fold"}, {"measurement": "TCF-activity (TOPflash reporter, 293T cells) compared to vector control", "setting": "[2]", "result": 4, "unit": "fold"}, {"measurement": "TCF-activity (TOPflash reporter, 293T cells), increase due to the presence of Wnt2", "setting": "[2]", "result": "~2", "unit": "fold"}, {"measurement": "TCF activity (TOPflash reporter) in Human Embryonic Kidney 293 cells and A549 cells compared to vector control", "setting": "[3]", "result": 5, "unit": "fold"}, {"measurement": "luciferase activity (TOPflash TCF reporter, 293T cells co-expressing Wnt2 and the Fzd receptor) compared to vector alone", "setting": "[3]", "result": 25, "unit": "fold"}, {"measurement": "luciferase activity (TOPflash TCF reporter, 293T cells co-expressing Wnt2 and the Fzd receptor)", "setting": "[4]", "result": 10, "unit": "fold"}]}
